Consider one molecule from patent US10000771B2, “Nuclear targeting sequences” (Yeda Research and Development Co. Ltd., priority 2007, dated 2018).

One experiment concerns the target T1, Act-GST-ERK2 (Rattus norvegicus, UniProt P63086).
T1 construct: made in house; host or cells: bacteria co-expressing active MEK1
As to the kind of experiment: In vitro kinase assay with active GST-ERK2. It is filed as biochemical. Conditions: immunoprecipitated protein as substrate, relative to GFP-ERK2. The method, then:
FIGS. 4A-4I are autoradiographs characterizing SPS phosphorylation using an Ab to the phosphorylated SPS domain. FIG. 4A illustrates an elevation of pSPS detection upon stimulation. COS cells were transfected with WT-GFP-ERK2. Twenty-four hr after transfection, the cells were serum-starved for 16 hr and subsequently treated with the general stimulator VOOH (V, 100 μM Na3VO4 and 200 μM H2O2, 15 min), TPA (T, 250 nM, 15 min), EGF (E, 50 ng/ml for 15 min), or left untreated (NT). The GFP-ERK2 was immunoprecipitated with anti GFP Ab, extensively washed, and the IP was then subjected to Western blotting with anti phospho SPS-ERK (αphoSPS-ERK) and anti general ERK (αgen-ERK) Abs. FIG. 4B is a time course of SPS phosphorylation. […] SPS phosphorylation was detected using the anti pSPS Abs, and this was compared to the amount of genral ERKs detected by αgERK. […] SPS-phosphorylation was detected using αpSPS and αgERK Abs. […] The phosphorylation (^32P-ERK2) of ERK and its mutants was detected by autoradiography. […]
Some protein kinases downstream of MEKs that may be involved in the SPS phosphorylation are ERKs themselves (autophosphorylation) as their consensus phosphorylation site includes Ser/Thr followed by a Pro (Yoon and Seger, 2006, Growth Factors, 24, 21-44). […] As expected, ^32P incorporation to GFP-ERK2 was detected mainly when this protein was incubated with Act-ERK2. […]

A further experiment concerns the target T2, importin-7 (Homo sapiens, UniProt O95373).
T2 construct: endogenous in cells; host or cells: HeLa
As to the kind of experiment: Coimmunoprecipitation with importin-7. It is filed as binding. Conditions: HeLa cells, coimmunoprecipitation with anti GFP Ab, with or without stimulation. The method, then: FIGS. 19A-19C are autoradiographs illustrating that phospho-SPS interacts with importin-7 and releases Nup153c binding without involvment of importin-β. […]. Interaction of ERK2 with Importin-7 is enhanced by EGF stimulation and EPE mutation. HeLa cells overexpressing WT-ERK (WT), ERK-APA (APA), ERK-EPE (EPE) or GFP were serum starved and treated with EGF (50 ng/ml, 10 min). The extracts of the treated cells were then subjected to coimmunoprecipitation using A/G beads pre-conjugated with anti GFP Ab and mild washes. The coimmunoprecipitated importin-7 (first panel) and importin-β (third panel), as well as their loading amounts (panels 2 and 4 respectively) were determined by WB using anti importin-7 (αImp7) and importin-β (αImpβ) Abs. The equal amount of immunoprecipitated ERKs was determined with anti GFP (αGFP; IP) Ab. FIG. 19B. Interaction of 2GFP-SPS and its mutants with importin-7. HeLa cells overexpressing 2GFP, 2GFP-SPS, 2GFP-APA and 2GFP-EPE constructs were subjected to coimmunoprecipitation as described in FIG. 19A (without EGF stimulation). FIG. 19C. Interaction of NUP153 with WTERK2 and its APA and EPE mutants. NUP153c is elevated in APA-ERK2, but reduced in EPE-ERK2. Immunoprecipitated and stringently washed WT-ERK2 (WT), APA-ERK2 (APA) or ERK2 from […] cells pre-treated with or without TPA (250 nM, 15 min) were incubated with 0.5 μg recombinant His-Nup153c. […]

T1 sequence (P63086 whole entry): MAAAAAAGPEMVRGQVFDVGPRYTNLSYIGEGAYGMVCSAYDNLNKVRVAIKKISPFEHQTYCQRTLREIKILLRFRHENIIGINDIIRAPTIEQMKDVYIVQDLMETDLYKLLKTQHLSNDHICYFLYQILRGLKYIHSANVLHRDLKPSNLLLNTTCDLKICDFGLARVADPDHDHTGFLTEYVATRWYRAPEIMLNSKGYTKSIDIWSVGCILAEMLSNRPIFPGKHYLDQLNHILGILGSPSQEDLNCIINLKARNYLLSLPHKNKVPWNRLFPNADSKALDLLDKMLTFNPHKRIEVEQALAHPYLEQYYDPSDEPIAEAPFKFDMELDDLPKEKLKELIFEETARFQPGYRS
T2 sequence (O95373 whole entry): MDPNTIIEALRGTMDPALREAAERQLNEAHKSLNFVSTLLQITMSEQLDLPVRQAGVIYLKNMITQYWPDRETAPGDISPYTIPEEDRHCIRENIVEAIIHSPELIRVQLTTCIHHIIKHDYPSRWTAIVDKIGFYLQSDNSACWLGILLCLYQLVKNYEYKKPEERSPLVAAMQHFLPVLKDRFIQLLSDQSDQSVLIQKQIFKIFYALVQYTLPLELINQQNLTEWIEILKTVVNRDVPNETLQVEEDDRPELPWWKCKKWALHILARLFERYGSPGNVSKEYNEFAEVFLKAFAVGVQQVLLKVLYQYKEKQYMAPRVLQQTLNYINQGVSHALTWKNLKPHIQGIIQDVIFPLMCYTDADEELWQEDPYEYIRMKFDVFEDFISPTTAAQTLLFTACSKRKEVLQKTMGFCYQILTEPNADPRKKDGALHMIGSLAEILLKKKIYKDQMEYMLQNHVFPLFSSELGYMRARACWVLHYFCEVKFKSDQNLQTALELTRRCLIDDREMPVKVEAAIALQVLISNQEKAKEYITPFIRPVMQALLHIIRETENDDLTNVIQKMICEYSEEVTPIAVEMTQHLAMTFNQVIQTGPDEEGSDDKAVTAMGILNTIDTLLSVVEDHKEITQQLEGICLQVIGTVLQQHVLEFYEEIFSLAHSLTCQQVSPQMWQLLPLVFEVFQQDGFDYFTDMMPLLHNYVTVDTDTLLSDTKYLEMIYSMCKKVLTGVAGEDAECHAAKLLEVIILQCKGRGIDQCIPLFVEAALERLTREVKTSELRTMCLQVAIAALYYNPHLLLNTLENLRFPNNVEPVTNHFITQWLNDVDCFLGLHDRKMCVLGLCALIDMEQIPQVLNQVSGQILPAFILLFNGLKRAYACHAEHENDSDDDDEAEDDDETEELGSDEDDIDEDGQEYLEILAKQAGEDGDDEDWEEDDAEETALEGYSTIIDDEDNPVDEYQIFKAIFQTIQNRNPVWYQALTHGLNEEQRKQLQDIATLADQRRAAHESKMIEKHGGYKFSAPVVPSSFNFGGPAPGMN

B1: APA-ERK2: GFP-ERK2 with the two Ser residues of the SPS sequence replaced by Ala (protein)
chain: MAAAAAAGPEMVRGQVFDVGPRYTNLSYIGEGAYGMVCSAYDNLNKVRVAIKKISPFEHQTYCQRTLREIKILLRFRHENIIGINDIIRAPTIEQMKDVYIVQDLMETDLYKLLKTQHLSNDHICYFLYQILRGLKYIHSANVLHRDLKPSNLLLNTTCDLKICDFGLARVADPDHDHTGFLTEYVATRWYRAPEIMLNSKGYTKSIDIWSVGCILAEMLSNRPIFPGKHYLDQLNHILGILGAPAQEDLNCIINLKARNYLLSLPHKNKVPWNRLFPNADSKALDLLDKMLTFNPHKRIEVEQALAHPYLEQYYDPSDEPIAEAPFKFDMELDDLPKEKLKELIFEETARFQPGYRS
modifications: left off: large carriers
Take B1: in the experiment with Act-GST-ERK2, the “reduction of phosphorylation (32P incorporation) by Act-ERK2” value is recorded as around 80%. Besides, the “interaction of ERK2 constructs with importin-7” value in the experiment with importin-7 is recorded as “reduced the interaction”.
